This is an account of results in paper PMC5350519.

Assay [1] addresses CENP-A^TAP (carboxy-terminally TAP-tagged CENP-A) (human) (UniProt P49450). Nature of the assay: co-IP.
The target of assay [2] is CENP-A^LAP (CENP-A tagged at an endogenous allele with a LAP tag) (human (endogenous in HeLa)) (UniProt P49450). Description: co-IP.

In assay [1], “histone H3 (from UniProt P68431 1-136) (natural protein)” gave a fold depletion of histone H3 in the purified complexes against the input of 6250 fold.
In assay [1], “untagged endogenous CENP-A (from UniProt P49450 1-140) (natural protein)” returned a percent of the total CENP-A in the affinity-purified complexes of 9 to 13% and a stoichiometry N (CENP-A molecules in a complex) of over 2. Besides, the stoichiometry N (CENP-A molecules in a complex) in assay [2] turned out to be 2.
